Results as given in patent publication US20250041435A1 (AstraZeneca / MedImmune, published 2025).

T1: human STEAP2 (six-transmembrane epithelial antigen of prostate 2) (human, UniProt Q8NFT2 1-490)
T1 sequence: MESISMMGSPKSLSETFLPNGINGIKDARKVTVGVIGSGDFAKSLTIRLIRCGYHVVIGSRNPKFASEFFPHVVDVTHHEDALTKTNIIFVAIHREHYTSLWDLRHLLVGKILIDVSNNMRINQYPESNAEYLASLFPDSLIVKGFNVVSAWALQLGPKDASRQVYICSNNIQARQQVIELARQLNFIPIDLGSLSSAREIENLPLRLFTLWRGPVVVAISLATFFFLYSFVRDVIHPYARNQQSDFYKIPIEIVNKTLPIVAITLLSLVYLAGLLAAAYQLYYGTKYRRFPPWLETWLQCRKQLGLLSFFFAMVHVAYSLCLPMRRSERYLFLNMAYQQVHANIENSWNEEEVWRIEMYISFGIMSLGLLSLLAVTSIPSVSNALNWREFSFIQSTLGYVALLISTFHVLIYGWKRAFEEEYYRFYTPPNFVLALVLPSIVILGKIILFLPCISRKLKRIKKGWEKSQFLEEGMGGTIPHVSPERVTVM

B1: LO14 SG3932 DAR8 ADC (antibody, human IgG1, kappa, V domains shown)
VH: QVQLQQSGPGLVKPSQTLSLTCAISGDSVSRNSAVWNWIRQSPSRGLEWLGRTYYRSKWYNDYAPSVKSRITINPDTSKNQFSLQLNSVTPEDTAVYYCARGLRQNQFYYYMDVWGKGTTVTVSS
VL: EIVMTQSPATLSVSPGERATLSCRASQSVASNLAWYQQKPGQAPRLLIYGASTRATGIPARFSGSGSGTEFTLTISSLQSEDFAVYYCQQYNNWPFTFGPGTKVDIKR
modifications: SG3932 on native cysteines (DAR 8 per antibody); SG3932 (TOP1i, cleavable mal-PEG8-val-ala linker) on native cysteines through a thiosuccinimide linkage; DAR 8 per antibody
B2: LO11 SG3932 DAR8 ADC (antibody, human IgG1, kappa, V domains shown)
VH: QVQLQQSGPGLVKPSQTLSLTCAISGDSVSRNSAVWNWIRQSPSRGLEWLGRTYYRSKWYNDYAPSVKSRITINPDTSKNQFSLQLNSVTPEDTAVYYCARGLLQNQFYYYMDVWGKGTTVTVSS
VL: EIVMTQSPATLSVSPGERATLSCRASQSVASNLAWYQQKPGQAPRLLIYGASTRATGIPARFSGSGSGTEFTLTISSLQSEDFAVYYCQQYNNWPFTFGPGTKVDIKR
modifications: SG3932 on native cysteines (DAR 8 per antibody); SG3932 (TOP1i, cleavable mal-PEG8-val-ala linker) on native cysteines through a thiosuccinimide linkage; DAR 8 per antibody
B3: 40A3-LO14 (antibody, human IgG1, kappa, V domains shown)
VH: QVQLQQSGPGLVKPSQTLSLTCAISGDSVSRNSAVWNWIRQSPSRGLEWLGRTYYRSKWYNDYAPSVKSRITINPDTSKNQFSLQLNSVTPEDTAVYYCARGLRQNQFYYYMDVWGKGTTVTVSS
VL: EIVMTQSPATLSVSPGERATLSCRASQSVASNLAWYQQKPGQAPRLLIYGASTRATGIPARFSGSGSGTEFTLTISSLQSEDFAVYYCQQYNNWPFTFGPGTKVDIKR
notes: also called 40A3GL-LO14; LO14 mAb
B4: 40A3-LO12 (antibody, V domains shown)
VH: QVQLQQSGPGLVKPSQTLSLTCAISGDSVSRNSAVWNWIRQSPSRGLEWLGRTYYRSKWYNDYAVSVKSRITINPDTSKNQFSLQLNSVTPEDTAVYYCARGLRQNQFYYYMDVWGKGTTVTVSS
VL: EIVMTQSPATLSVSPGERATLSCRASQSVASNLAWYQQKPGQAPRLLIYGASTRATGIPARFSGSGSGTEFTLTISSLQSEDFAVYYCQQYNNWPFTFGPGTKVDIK
notes: Human IgG1 kappa
B5: 40A3-LO11 (antibody, human IgG1, kappa, V domains shown)
VH: QVQLQQSGPGLVKPSQTLSLTCAISGDSVSRNSAVWNWIRQSPSRGLEWLGRTYYRSKWYNDYAPSVKSRITINPDTSKNQFSLQLNSVTPEDTAVYYCARGLLQNQFYYYMDVWGKGTTVTVSS
VL: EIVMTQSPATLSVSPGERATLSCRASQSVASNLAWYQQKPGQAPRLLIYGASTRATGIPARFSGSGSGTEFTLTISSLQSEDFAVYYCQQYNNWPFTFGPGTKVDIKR
notes: also called 40A3GL-LO11; LO11 mAb
B6: 40A3-LO7 (antibody, V domains shown)
VH: QVQLQQSGPGLVKPSQTLSLTCAISGDSVSRNSAVWNWIRQSPSRGLEWLGRTYYRSKWYNDYAVSVKSRITINPDTSKNQFSLQLNSVTPEDTAVYYCARGLLQNQFYYYMDVWGKGTTVTVSS
VL: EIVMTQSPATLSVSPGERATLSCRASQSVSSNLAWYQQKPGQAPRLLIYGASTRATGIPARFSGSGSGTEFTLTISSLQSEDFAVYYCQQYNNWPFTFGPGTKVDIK
notes: Germlined, de-risked 40A3; Human IgG1 kappa; also called 40A3GL-LO7; STEAP2-3 VH / STEAP2-3 VL

How the values were obtained:
[1] = biological target: T1, human STEAP2 (six-transmembrane …); test: cell-based or functional assay
[2] = biological target: T1, human STEAP2 (six-transmembrane …); test: cell-based or functional assay; remark: listed apart in the source
[3] = biological target: T2, murine chimeric STEAP3-2 protein on AD293 cells (murine); test: flow cytometry on AD293 muSTEAP3-2 cells, anti-human secondary
T2 construct: Used to test cross-reactivity to mouse STEAP2; also called AD293 muSTEAP3-2; AD293 STEAP3-2
Method: (§1) The cell-binding assays were designed to assess the binding affinities for parental 40A3-LO7 and its affinity matured derivatives to both human and murine STEAP2. The binding of the anti-STEAP2 antibodies were detected using a fluorescently labelled anti-human secondary antibody and standard methods of flow cytometry.
(§2) Briefly, a seven point 3-fold serial dilutions of 5× antibodies (mAbs) was prepared in sterile filtered FACS Buffer (5% Heat Inactivated Fetal Bovine Serum in PBS pH 7.4). Ten microliters of the antibody dilutions were added into designated wells in a 96-well U-bottom clear plate. The evaluated cells lines were harvested using cold 0.25% Trypsin-EDTA, resuspended in maintenance media, pelleted, and counted. Cell density was adjusted to 2×10⁶ cells/ml and forty microliters of cells were seeded on top of the antibody dilutions and incubated for 30 minutes. Cells were washed and a solution containing a 1:400 dilution of anti-human secondary antibody and a 1:1000 dilution of DAPI. After another 30 minute incubation, cells were washed, and then transferred to the FACS instrument for analysis.

[4] = biological target: T1, human STEAP2 (six-transmembrane …); test: cell-based binding (flow cytometry)
[5] = biological target: T1, human STEAP2 (six-transmembrane …); test: flow cytometry on LNCaP cells (endogenous human STEAP2), anti-human AF647 secondary
Method: as §1, §2

[6] = biological target: T1, human STEAP2 (six-transmembrane …); test: flow cytometry on LNCaP cells (endogenous human STEAP2)
[7] = biological target: T2, murine chimeric STEAP3-2 protein on …; test: flow cytometry on AD293 muSTEAP3-2 cells, fluorescent anti-human secondary antibody
Method: as §1, §2

Binder | IC50 of cell viability, LNCaP cells (CellTiter-Glo) [1] [nM] | In Vitro Potency (22Rv1), IC50 of cell viability (CellTiter-Glo) [2] [nM] | In Vitro Potency (C4-2), IC50 of cell viability (CellTiter-Glo) [2] [nM] | In Vitro Potency (LNCaP), IC50 of cell viability (CellTiter-Glo) [2] [nM] | EC50 [3] [nM] | EC50 [5] [nM] | EC50 [6] [nM] | also measured
B1 | 0.3 | 4.53 | 2.23 | 0.22 | – | – | – | –
B2 | 2.78 | 32.1 | 16.5 | 1.7 | – | – | – | –
B3 | – | – | – | – | 0.97 | 1.67 | – | fold improvement in binding relative to 40A3-LO7 [4]: 26 fold
B4 | – | – | – | – | – | – | 1.72 | –
B5 | – | – | – | – | 5.78 | 2.38 | – | –
B6 | – | – | – | – | – | – | 43.3 | EC50 (read off the curve) [7]: ~5 mg/L
